Test results taken from article PMC5449173.

Tests used:
[1] = molecular target: RPTPσ (transfected in 293T/17 cells for native PAGE) (not stated (human or mouse cDNA cloned)); assay: native gel or EMSA; lysates (NP-40 buffer) of RPTPσ-transfected 293T/17 cells in Coomassie blue sample buffer, native PAGE, western blot; cells untreated or treated with CSPG for 30 min
[2] = molecular target: RPTPσ FC (full-length RPTPσ fused to FKBP-Cluc) (not stated (human or mouse cDNA cloned) | not stated); assay: split reporter (BiFC, NanoBiT); split firefly luciferase; 293T/17 cells co-transfected with RPTPσ FN/FC, 48 h, rapamycin for 4 hr against DMSO control

Row | stoichiometry N [1] | fold increase of bioluminescence with rapamycin against control cells [2] | Substance
1 | 2 |  | RPTPσ (transfected in 293T/17 cells for native PAGE) (receptor)
2 |  | 3 fold | RPTPσ FN (full-length RPTPσ fused to FRB-Nluc)
